Assay results reported in publication PMC9177416, “Discovery of non-squalene triterpenes” (Nature, 2022).

Target: the molecule itself
Assay: cryo-EM structure; non-cross-linked full-length MpMS, unliganded, 50 uM in 20 mM HEPES pH 7.5, 150 mM NaCl, 1 mM DTT; only the PT domain reconstructed; map resolution 3.17 Å

B1: Macrophomina phaseolina macrophomene synthase (enzyme, Macrophomina phaseolina MS6, UniProt K2SUY0 1-698, looked up)
chain: MCNTKCYNTLAKMTVITEPAMEYMYSVPLDESEYDKCGFCQDPRYRPRRHKDQHLARAGSAKAKELCEALIGVYPRPTCESAVGHSIALVMPECMPGRVEAMGEFMESIFYMDNIAESGSQQDTGNLGTEWANDMETGPTTSVNSNTGAKQVMAKLALQLLSIDPVCAGNVMKAWKEWAAGFAKPRRFDSIEQYIDYRLVDSGAIVAVHLMNFGMGLDISVEELREVSDIVNHAGKALSYQNDFFSFNYEHDMFVKLPDSIGIANAVFVLAETEGLSLAEAKERVKELAKEHEDAVLRLKDEVESKVSYKLRICLEGLVDMVVGNLVWSASCDRYSSYRREKHQMELPIRIQGPPTPPQEPVYEKATLPNGKQLDAPTESSGKDLSDGVATLSGDEPVLGDEIVSAPIKYLESLPSKGFREAIIDGMNGWLNLPARSVSIIKDVVKHIHTASLLCDDIEDSSPLRRGQPSAHIIFGVSQTVNSTSYLWTLAIDRLSELSSPKSLRIFIDEVRKMQIGQSFDLHWTAALQCPSEEEYLSMIDMKTGGLFHLLIRLMIAESPRKVDMDFSGLVSMTGRYFQIRDDLSNLTSEEYENQKGYCEDLDEGKYSLPLIHALKHTKNKVQLESLLIQRKTQGGMTLEMKRLAIQIMKEAGSLEHTRKVVLELQDAVHRELAKLEEAFGQENYVIQLALERLRIKA
notes: codon-optimized synthetic gene cloned NdeI/EcoRI into pET28a (pRC088); Used without cross-linking in one cryo-EM sample and cross-linked with 0.06% glutaraldehyde in another; Only the PT domain (plus one TC helix in the cross-linked sample) could be modelled; also called MpMS; MPH_02178; source: E. coli BL21(DE3), purified (Ni-NTA, Resource Q anion exchange, Superose 6 size exclusion)
In the case of B1, the “stoichiometry N” value is reported as 6.
